# According to ChEMBL document CHEMBL2073850, “Human organic anion transporters and human organic cation transporters mediate renal transport of prostaglandins” (J Pharmacol Exp Ther, 2002):
# B1: Solute carrier family 22 member 2 (Homo sapiens) (protein)
# chain: MPTTVDDVLEHGGEFHFFQKQMFFLLALLSATFAPIYVGIVFLGFTPDHRCRSPGVAELSLRCGWSPAEELNYTVPGPGPAGEASPRQCRRYEVDWNQSTFDCVDPLASLDTNRSRLPLGPCRDGWVYETPGSSIVTEFNLVCANSWMLDLFQSSVNVGFFIGSMSIGYIADRFGRKLCLLTTVLINAAAGVLMAISPTYTWMLIFRLIQGLVSKAGWLIGYILITEFVGRRYRRTVGIFYQVAYTVGLLVLAGVAYALPHWRWLQFTVSLPNFFFLLYYWCIPESPRWLISQNKNAEAMRIIKHIAKKNGKSLPASLQRLRLEEETGKKLNPSFLDLVRTPQIRKHTMILMYNWFTSSVLYQGLIMHMGLAGDNIYLDFFYSALVEFPAAFMIILTIDRIGRRYPWAASNMVAGAACLASVFIPGDLQWLKIIISCLGRMGITMAYEIVCLVNAELYPTFIRNLGVHICSSMCDIGGIITPFLVYRLTNIWLELPLMVFGVLGLVAGGLVLLLPETKGKALPETIEEAENMQRPRKNKEKMIYLQVQKLDIPLN
# B2: Solute carrier family 22 member 11 (Homo sapiens) (protein)
# chain: MAFSKLLEQAGGVGLFQTLQVLTFILPCLMIPSQMLLENFSAAIPGHRCWTHMLDNGSAVSTNMTPKALLTISIPPGPNQGPHQCRRFRQPQWQLLDPNATATSWSEADTEPCVDGWVYDRSVFTSTIVAKWDLVCSSQGLKPLSQSIFMSGILVGSFIWGLLSYRFGRKPMLSWCCLQLAVAGTSTIFAPTFVIYCGLRFVAAFGMAGIFLSSLTLMVEWTTTSRRAVTMTVVGCAFSAGQAALGGLAFALRDWRTLQLAASVPFFAISLISWWLPESARWLIIKGKPDQALQELRKVARINGHKEAKNLTIEVLMSSVKEEVASAKEPRSVLDLFCVPVLRWRSCAMLVVNFSLLISYYGLVFDLQSLGRDIFLLQALFGAVDFLGRATTALLLSFLGRRTIQAGSQAMAGLAILANMLVPQDLQTLRVVFAVLGKGCFGISLTCLTIYKAELFPTPVRMTADGILHTVGRLGAMMGPLILMSRQALPLLPPLLYGVISIASSLVVLFFLPETQGLPLPDTIQDLESQKSTAAQGNRQEAVTVESTSL
# B3: Organic anion transporter 3 (Homo sapiens) (protein)
# chain: MTFSEILDRVGSMGHFQFLHVAILGLPILNMANHNLLQIFTAATPVHHCRPPHNASTGPWVLPMGPNGKPERCLRFVHPPNASLPNDTQRAMEPCLDGWVYNSTKDSIVTEWDLVCNSNKLKEMAQSIFMAGILIGGLVLGDLSDRFGRRPILTCSYLLLAASGSGAAFSPTFPIYMVFRFLCGFGISGITLSTVILNVEWVPTRMRAIMSTALGYCYTFGQFILPGLAYAIPQWRWLQLTVSIPFFVFFLSSWWTPESIRWLVLSGKSSKALKILRRVAVFNGKKEEGERLSLEELKLNLQKEISLAKAKYTASDLFRIPMLRRMTFCLSLAWFATGFAYYSLAMGVEEFGVNLYILQIIFGGVDVPAKFITILSLSYLGRHTTQAAALLLAGGAILALTFVPLDLQTVRTVLAVFGKGCLSSSFSCLFLYTSELYPTVIRQTGMGVSNLWTRVGSMVSPLVKITGEVQPFIPNIIYGITALLGGSAALFLPETLNQPLPETIEDLENWSLRAKKPKQEPEVEKASQRIPLQPHGPGLGSS
# B4: Solute carrier family 22 member 7 (Homo sapiens) (protein)
# chain: MGFEELLEQVGGFGPFQLRNVALLALPRVLLPLHFLLPIFLAAVPAHRCALPGAPANFSHQDVWLEAHLPREPDGTLSSCLRFAYPQALPNTTLGEERQSRGELEDEPATVPCSQGWEYDHSEFSSTIATESQWDLVCEQKGLNRAASTFFFAGVLVGAVAFGYLSDRFGRRRLLLVAYVSTLVLGLASAASVSYVMFAITRTLTGSALAGFTIIVMPLELEWLDVEHRTVAGVLSSTFWTGGVMLLALVGYLIRDWRWLLLAVTLPCAPGILSLWWVPESARWLLTQGHVKEAHRYLLHCARLNGRPVCEDSFSQEAVSKVAAGERVVRRPSYLDLFRTPRLRHISLCCVVVWFGVNFSYYGLSLDVSGLGLNVYQTQLLFGAVELPSKLLVYLSVRYAGRRLTQAGTLLGTALAFGTRLLVSSDMKSWSTVLAVMGKAFSEAAFTTAYLFTSELYPTVLRQTGMGLTALVGRLGGSLAPLAALLDGVWLSLPKLTYGGIALLAAGTALLLPETRQAQLPETIQDVERKSAPTSLQEEEMPMKQVQN
# B5: Solute carrier family 22 member 1 (Homo sapiens) (protein)
# chain: MPTVDDILEQVGESGWFQKQAFLILCLLSAAFAPICVGIVFLGFTPDHHCQSPGVAELSQRCGWSPAEELNYTVPGLGPAGEAFLGQCRRYEVDWNQSALSCVDPLASLATNRSHLPLGPCQDGWVYDTPGSSIVTEFNLVCADSWKLDLFQSCLNAGFLFGSLGVGYFADRFGRKLCLLGTVLVNAVSGVLMAFSPNYMSMLLFRLLQGLVSKGNWMAGYTLITEFVGSGSRRTVAIMYQMAFTVGLVALTGLAYALPHWRWLQLAVSLPTFLFLLYYWCVPESPRWLLSQKRNTEAIKIMDHIAQKNGKLPPADLKMLSLEEDVTEKLSPSFADLFRTPRLRKRTFILMYLWFTDSVLYQGLILHMGATSGNLYLDFLYSALVEIPGAFIALITIDRVGRIYPMAMSNLLAGAACLVMIFISPDLHWLNIIIMCVGRMGITIAIQMICLVNAELYPTFVRNLGVMVCSSLCDIGGIITPFIVFRLREVWQALPLILFAVLGLLAAGVTLLLPETKGVALPETMKDAENLGRKAKPKENTIYLKVQTSEPSGT
# B6: Solute carrier family 22 member 6 (Homo sapiens) (protein)
# chain: MAFNDLLQQVGGVGRFQQIQVTLVVLPLLLMASHNTLQNFTAAIPTHHCRPPADANLSKNGGLEVWLPRDRQGQPESCLRFTSPQWGLPFLNGTEANGTGATEPCTDGWIYDNSTFPSTIVTEWDLVCSHRALRQLAQSLYMVGVLLGAMVFGYLADRLGRRKVLILNYLQTAVSGTCAAFAPNFPIYCAFRLLSGMALAGISLNCMTLNVEWMPIHTRACVGTLIGYVYSLGQFLLAGVAYAVPHWRHLQLLVSAPFFAFFIYSWFFIESARWHSSSGRLDLTLRALQRVARINGKREEGAKLSMEVLRASLQKELTMGKGQASAMELLRCPTLRHLFLCLSMLWFATSFAYYGLVMDLQGFGVSIYLIQVIFGAVDLPAKLVGFLVINSLGRRPAQMAALLLAGICILLNGVIPQDQSIVRTSLAVLGKGCLAASFNCIFLYTGELYPTMIRQTGMGMGSTMARVGSIVSPLVSMTAELYPSMPLFIYGAVPVAASAVTVLLPETLGQPLPDTVQDLESRWAPTQKEAGIYPRKGKQTRQQQEHQKYMVPLQASAQEKNGL
# What was measured:
# [1] = substrate: CCCCC[C@H](O)/C=C/[C@@H]1[C@@H](C/C=C\CCCC(=O)O)[C@@H](O)C[C@H]1O; experiment: (§1) TP_TRANSPORTER: uptake in OCT2-expressing S2 cells; type: functional, cell-based
# [2] = substrate: CCCCC[C@H](O)/C=C/[C@H]1[C@H](O)CC(=O)[C@@H]1C/C=C\CCCC(=O)O; experiment: as §1; type: functional, cell-based
# [3] = substrate: CCCCC[C@H](O)/C=C/[C@@H]1[C@@H](C/C=C\CCCC(=O)O)[C@@H](O)C[C@H]1O; experiment: (§2) TP_TRANSPORTER: uptake in OAT4-expressing S2 cells; type: functional, cell-based
# [4] = substrate: CCCCC[C@H](O)/C=C/[C@H]1[C@H](O)CC(=O)[C@@H]1C/C=C\CCCC(=O)O; experiment: as §2; type: functional, cell-based
# [5] = substrate: CCCCC[C@H](O)/C=C/[C@@H]1[C@@H](C/C=C\CCCC(=O)O)[C@@H](O)C[C@H]1O; experiment: (§3) TP_TRANSPORTER: uptake in OAT3-expressing S2 cells; type: functional, cell-based
# [6] = substrate: CCCCC[C@H](O)/C=C/[C@H]1[C@H](O)CC(=O)[C@@H]1C/C=C\CCCC(=O)O; experiment: as §3; type: functional, cell-based
# [7] = substrate: CCCCC[C@H](O)/C=C/[C@@H]1[C@@H](C/C=C\CCCC(=O)O)[C@@H](O)C[C@H]1O; experiment: (§4) TP_TRANSPORTER: uptake in OAT2-expressing S2 cells; type: functional, cell-based
# [8] = substrate: CCCCC[C@H](O)/C=C/[C@H]1[C@H](O)CC(=O)[C@@H]1C/C=C\CCCC(=O)O; experiment: as §4; type: functional, cell-based
# [9] = substrate: CCCCC[C@H](O)/C=C/[C@@H]1[C@@H](C/C=C\CCCC(=O)O)[C@@H](O)C[C@H]1O; experiment: (§5) TP_TRANSPORTER: uptake in OCT1-expressing S2 cells; type: functional, cell-based
# [10] = substrate: CCCCC[C@H](O)/C=C/[C@H]1[C@H](O)CC(=O)[C@@H]1C/C=C\CCCC(=O)O; experiment: as §5; type: functional, cell-based
# [11] = substrate: CCCCC[C@H](O)/C=C/[C@@H]1[C@@H](C/C=C\CCCC(=O)O)[C@@H](O)C[C@H]1O; experiment: TP_TRANSPORTER: uptake in OAT1-expressing S2 cells; type: functional, cell-based
# [12] = substrate: CCCCC[C@H](O)/C=C/[C@H]1[C@H](O)CC(=O)[C@@H]1C/C=C\CCCC(=O)O; experiment: cells, lysate or membranes named
protein,measurement,setting,value
B1,Km,[1],0.334 µM
same,Km,[2],0.0289 µM
B2,Km,[3],0.692 µM
same,Km,[4],0.154 µM
B3,Km,[5],1.09 µM
same,Km,[6],0.345 µM
B4,Km,[7],0.425 µM
same,Km,[8],0.713 µM
B5,Km,[9],0.477 µM
same,Km,[10],0.657 µM
B6,Km,[11],0.575 µM
same,Km,[12],0.97 µM
